Columns and labels:
[1] = target: T1, human CTLA-4 (amino acids M1-N223) on stably transfected VI-fibroblast cells (human, UniProt P16410 36-223); assay: ECL cell binding, VI-fibroblast/hCTLA-4 cells;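 further: antibodies bound to the cells on carbon electrode plates, detected via SULFO-TAG anti-IgG secondary (1 h, RT), electrochemiluminescence read as RLU over a concentration range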
T1 construct: also called VI-fibroblast/hCTLA-4

[2] = target: T2, soluble human CTLA-4 expressed with a C-terminal myc-myc-polyhistidine tag (human); assay: SPR, mAb capture, 25 C
T2 construct: soluble protein; also called hCTLA-4.mmh; hCTLA4.mmh

[3] = target: T3, recombinant hCTLA-4-mFc (human CTLA-4 extracellular domain with a C-terminal Fc portion of mouse IgG2a) (human); assay: competition ELISA, 400 pM hCTLA-4-mFc on plate-coated hB7-2-hIgG1-6His
T3 construct: also called dimeric CTLA-4 protein

[4] = target: T3, recombinant hCTLA-4-mFc (human CTLA-4 …); assay: competition ELISA, 200 pM hCTLA-4-mFc on plate-coated hB7-1-hIgG1-6His

T1 sequence (P16410 36-223 limits assumed): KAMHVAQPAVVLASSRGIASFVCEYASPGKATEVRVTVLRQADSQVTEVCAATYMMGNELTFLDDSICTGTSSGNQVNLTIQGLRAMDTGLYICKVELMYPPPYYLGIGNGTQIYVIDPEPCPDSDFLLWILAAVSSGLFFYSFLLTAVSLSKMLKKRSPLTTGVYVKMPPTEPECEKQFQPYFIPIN
T3 sequence (chain, as listed by the source limits assumed): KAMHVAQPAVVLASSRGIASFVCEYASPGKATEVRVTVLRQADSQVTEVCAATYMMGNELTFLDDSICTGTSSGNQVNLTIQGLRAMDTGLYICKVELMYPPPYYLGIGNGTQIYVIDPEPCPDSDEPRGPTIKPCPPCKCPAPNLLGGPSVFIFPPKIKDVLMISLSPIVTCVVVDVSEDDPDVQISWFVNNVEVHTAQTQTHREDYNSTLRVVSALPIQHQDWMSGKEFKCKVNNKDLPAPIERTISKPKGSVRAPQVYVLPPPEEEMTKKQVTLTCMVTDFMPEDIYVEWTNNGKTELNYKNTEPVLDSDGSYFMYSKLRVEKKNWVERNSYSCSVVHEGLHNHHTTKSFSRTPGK

Row | Binder | EC50 [1] [nM] | ratio of RLU signal to parental VI-fibroblast at 0.6 nM Ab [1] [ratio] | Kd [2] [nM] | koff [2] [s⁻¹] | kon [2] [M⁻¹ s⁻¹] | t1/2 [2] [min] | % Blockade [3] [%] | IC50 [3] [nM] | % Blockade [4] [%] | IC50 [4] [nM]
1 | H1H20386N (antibody, human IgG1, V domains shown, here with human IgG1 Fc (H1H)) VH: QVQLVESGGGVVQPGRSLRLSCAASGFTVNRYGIHWVRQAPGKGLEWVAVTWYDGRNKYFADSVKGRFSFSRDSSTNTLYLQMNSLRAEDTAVYYCARGGLFGYFDYWGQGTLVTVSS VL: EIVLTQSPDTLSLSPGERATLSCRASQSVAGSYLAWYQQKPGQAPRLLIYGASSRATGIPDRFSGSGSGTDFTLTISRLEPEDFAVYYCQQYGTSPWTFGQGTKVEIT |  |  | 10.5 | 0.00194 | 185000 | 6 | 96 | 7.7 | 94 | 18
2 | H1H20361N (antibody, human IgG1, V domains shown, here with human IgG1 Fc (H1H)) VH: QVQLQESGPGLVKPSQTLSLTCTVSGGSINNGGHYWTWIRQHPGKGLEWIGYIYYIGTTYYNPSLESRLSLSVDTSKNQFSLKLSSVTAADTAIYYCARSSLSVSEAFDVWGQGTMVTVSS VL: DIQMTQSPSSLSASVGDRITITCRGSQNIGSFLSWYQQRPGKAPKLLIFGAYNLQGGVPSRFSGSGSGTDFTLTISSLQPEDFATYFCQQSYSTPPITFGQGTRLEIK |  |  | 32.1 | 0.00199 | 62100 | 5.8 | 82 | 65 | 73 | 69
3 | H1H20375N (antibody, human IgG1, V domains shown, here with human IgG1 Fc (H1H)) VH: QLQLQESGPGLVKPSETLSFTCTVSGGSISSNYYYWGWVRQSPGKGLEWIGSIYHTGNAYDNPSLKSRVTISVDTSKNQFSLNLNSVTAADTAIYYCARHHSSSSWWYFDVWGRGTLVIVSS VL: EIVLTQSPDTLSLSPGERATLSCRASQTVSNSHLAWYQQKPGQAPRLLIYGTSSRATGIPDRFSGSGSGTDFSLTIIRLEPDDFAVYFCQQHESSPPTFGQGAKLEIK |  |  | 66.5 | 0.00279 | 41900 | 4.1 | 29 |  | 13 | 
4 | H1H20372N (antibody, human IgG1, V domains shown, here with human IgG1 Fc (H1H)) VH: EVQLVESGGGLVQPGRSLRLSCAGTGFIFDDYAMHWVRQAPGKGLEWVSGISWNSNSLGYADSVKGRFTISRDNAKKSLYLQMSSLRAEDTALYYCVKDVTRLELRGFLDYWGQGTQVTVSS VL: DIQMTQSPSSLSASVGDRVTITCRASQDIRNDLGWHQQKSGKAPKSLIYAASSLQSGAPSRFSGSGSGTEFTLTISSLQPEDSATYYCLQQNSYPPTFGQGTKVEIK |  |  | 4.55 | 0.000367 | 80500 | 31.5 | 98 | 0.99 | 98 | 2.5
5 | H1M20372N (antibody, mouse IgG1, V domains shown, hybridoma antibody, human variable domains, mouse IgG1 Fc (H1M)) VH: EVQLVESGGGLVQPGRSLRLSCAGTGFIFDDYAMHWVRQAPGKGLEWVSGISWNSNSLGYADSVKGRFTISRDNAKKSLYLQMSSLRAEDTALYYCVKDVTRLELRGFLDYWGQGTQVTVSS VL: DIQMTQSPSSLSASVGDRVTITCRASQDIRNDLGWHQQKSGKAPKSLIYAASSLQSGAPSRFSGSGSGTEFTLTISSLQPEDSATYYCLQQNSYPPTFGQGTKVEIK | 0.88 | 14 |  |  |  |  |  |  |  | 
6 | H1H20373N (antibody, human IgG1, V domains shown, here with human IgG1 Fc (H1H)) VH: EVQLLESGGGLVQPGGSLRLSCAASGFTFSSYAMSWVRQAPGKGLEWVSDISGSGLSTYYADSVKGRFAISRDNSKNMLYLQMNRLRAEDTAVYYCAKEPSHWNGEAFDIWGQGTMVTVSS VL: DIQMTQSPSSVSASVGDRVTITCRASQDISSWLAWYQQKPGKAPKLLIYTTANLQSGVPSRFSGSGSGTDFTLTISSLQSEDFATYYCQQANSFPFTFGSGTKVDIK |  |  | 0.766 | 0.000401 | 523000 | 28.8 | 91 | 34 | 22 | 
7 | H1H20370N (antibody, human IgG1, V domains shown, here with human IgG1 Fc (H1H)) VH: QVQLHESGPGLVKPSQTLSLTCSVSGGSISNGGYYWSWIRQHPGQGLEWIGYIYYIGNTYYNPSLESRVTMSIDTSKNQFSLKLSSVTAADTAIYYCARQEFVPGAEYFLHWGQGILVTVSS VL: DIRMTQSPSSLSASVGDRVTITCRASQTVNTFLNWYQQKPGKAPKLLIFGASSLQSGVPSRFSGSGSGTDFTLTISGLQPEDFAIYYCQQSYSVPPITFGQGTRLEIE |  |  | 3.43 | 0.000588 | 172000 | 19.6 | 96 | 0.99 | 95 | 0.86
8 | H1M20370N (antibody, mouse IgG1, V domains shown, hybridoma antibody, human variable domains, mouse IgG1 Fc (H1M)) VH: QVQLHESGPGLVKPSQTLSLTCSVSGGSISNGGYYWSWIRQHPGQGLEWIGYIYYIGNTYYNPSLESRVTMSIDTSKNQFSLKLSSVTAADTAIYYCARQEFVPGAEYFLHWGQGILVTVSS VL: DIRMTQSPSSLSASVGDRVTITCRASQTVNTFLNWYQQKPGKAPKLLIFGASSLQSGVPSRFSGSGSGTDFTLTISGLQPEDFAIYYCQQSYSVPPITFGQGTRLEIE | 0.22 | 23 |  |  |  |  |  |  |  | 

Further lines, results first:

Row | EC50 [1] [nM] | ratio of RLU signal to parental VI-fibroblast at 0.6 nM Ab [1] [ratio] | Kd [2] [nM] | koff [2] [s⁻¹] | kon [2] [M⁻¹ s⁻¹] | t1/2 [2] [min] | % Blockade [3] [%] | IC50 [3] [nM] | % Blockade [4] [%] | IC50 [4] [nM] | Binder
9 | 0.9 | 18 |  |  |  |  |  |  |  |  | H2M20369N (antibody, mouse IgG2, V domains shown, hybridoma antibody, human variable domains, mouse IgG2 Fc (H2M)) VH: QVQLVQSGTEVKRPGASVKVSCKASGFTFTGYYIYWVRQAPGEGLEWMGWINPHSGGTKYAQKFQGRVTLTRDTSINTAYLDLISLRSDDTAVYYCARIGGGGYSSYFDYWGQGTLVTVSS VL: DIQLTQSPSSLSASVGDRVTITCRASQTISTYLNWYQQKPGNAPKLLIYAASSLQSGVPSRFSGRGSGTDFTLTISSLQPEDFATYYCQQGYTTPPITFGQGTRLEIK
10 | 5.5 | 8 |  |  |  |  |  |  |  |  | H2M20385N (antibody, mouse IgG2, V domains shown, hybridoma antibody, human variable domains, mouse IgG2 Fc (H2M)) VH: QVQLVQSGAEVKKPGASVKVSCKTSGYTFTNNGISWVRQVPGQGLEWMGWISPYNGNTKYAQKFQGRVTMTTDTSTTTVYMDVRSLRSDDTAVYFCARDGPITISYFGMDVWGQGTTVTVSS VL: DIQMTQSPSSLSASVGDRVTITCRASQSISTYLNWYQQKPGKAPKLLIYAASTLQSGVPSRFGGSGSGTDFTLTVSSLQPEDFATYYCQQSYSTPPITFGQGTRLEIN
11 | 0.092 | 28 |  |  |  |  |  |  |  |  | H2M20379N (antibody, mouse IgG2, V domains shown, hybridoma antibody, human variable domains, mouse IgG2 Fc (H2M)) VH: QVQLVESGGGVVQPGRSLRLSCAASGITFSSYGMHWVRQAPGKGLEWVALTSYDGSKKYYSDSVKGRFTISRDNSKNTLYLQMNSLRPEDTAVYYCAKDKGGDDYYGMDVWGQGTTVTVSS VL: EIVLTQSPGTLSLSPGERATLSCRASQWISSSYLAWYQQKPGQAPRLLIYGAFSRAPGIPGRFSGSGSGTDFTLTISRLEPEDFAVYYCQQYGSSPYTFGQGTKLEIN
12 |  | 3 |  |  |  |  |  |  |  |  | H2M20386N (antibody, mouse IgG2, V domains shown, hybridoma antibody, human variable domains, mouse IgG2 Fc (H2M)) VH: QVQLVESGGGVVQPGRSLRLSCAASGFTVNRYGIHWVRQAPGKGLEWVAVTWYDGRNKYFADSVKGRFSFSRDSSTNTLYLQMNSLRAEDTAVYYCARGGLFGYFDYWGQGTLVTVSS VL: EIVLTQSPDTLSLSPGERATLSCRASQSVAGSYLAWYQQKPGQAPRLLIYGASSRATGIPDRFSGSGSGTDFTLTISRLEPEDFAVYYCQQYGTSPWTFGQGTKVEIT
13 | 0.32 | 19 |  |  |  |  |  |  |  |  | H2M20361N (antibody, mouse IgG2, V domains shown, hybridoma antibody, human variable domains, mouse IgG2 Fc (H2M)) VH: QVQLQESGPGLVKPSQTLSLTCTVSGGSINNGGHYWTWIRQHPGKGLEWIGYIYYIGTTYYNPSLESRLSLSVDTSKNQFSLKLSSVTAADTAIYYCARSSLSVSEAFDVWGQGTMVTVSS VL: DIQMTQSPSSLSASVGDRITITCRGSQNIGSFLSWYQQRPGKAPKLLIFGAYNLQGGVPSRFSGSGSGTDFTLTISSLQPEDFATYFCQQSYSTPPITFGQGTRLEIK
14 | 0.26 | 25 |  |  |  |  |  |  |  |  | H2M20368N (antibody, mouse IgG2, V domains shown, hybridoma antibody, human variable domains, mouse IgG2 Fc (H2M)) VH: QVQLQESGPGLVRPSQTLSLTCTVSGGSISNGGYYWTWIRQNPGKGLEWIGYIYYIGTTYYNPSLESRLSLSVDTSKNQFSLKLTSVTAADTAVYYCARSSLAVSEAFDIWGQGTMVTVSS VL: DIQMTQSPSSLSASVGDRFTITCRASQSIGSFLSWYQQKPGKAPKLLIYAASSLQSGVPSRFSGSGSGTDFTLTISSLQPEDFATYYCQQSYNTPPITFGQGTRLEIK
15 | 7.3 | 12 |  |  |  |  |  |  |  |  | H1M20393N (antibody, V domains shown, hybridoma antibody, human variable domains, mouse IgG1 Fc (H1M)) VH: DRQMVESGGGVVQPGRSLRLSCIASGFIISRYGMHWVRQAPGKGLEWVAVIWYDGRNKNYADSVKGRFTISRDNSKNTLYLEMNSLRAEDTAVYYCGRVHQFGAFDIWGQGTMVTVSS VL: not shown
16 | 0.19 | 18 |  |  |  |  |  |  |  |  | H2M20375N (antibody, mouse IgG2, V domains shown, hybridoma antibody, human variable domains, mouse IgG2 Fc (H2M)) VH: QLQLQESGPGLVKPSETLSFTCTVSGGSISSNYYYWGWVRQSPGKGLEWIGSIYHTGNAYDNPSLKSRVTISVDTSKNQFSLNLNSVTAADTAIYYCARHHSSSSWWYFDVWGRGTLVIVSS VL: EIVLTQSPDTLSLSPGERATLSCRASQTVSNSHLAWYQQKPGQAPRLLIYGTSSRATGIPDRFSGSGSGTDFSLTIIRLEPDDFAVYFCQQHESSPPTFGQGAKLEIK
17 |  | 3 |  |  |  |  |  |  |  |  | H2M20387N (antibody, mouse IgG2, V domains shown, hybridoma antibody, human variable domains, mouse IgG2 Fc (H2M)) VH: QVQLVESGGGVVQPGRSLRLSCAASGFTFSSYGIHWVRQAPGKGLEWVAVIWYGGNNKYYADSVKGRFTISRDNSKNTLYLQMNSLRAEDTALYHCARSGNFGAFDIWGQGTMVTVSS VL: EIVLTQSPGTLSLSPGERATLSCRASQSVSSYLAWYQQKPGQAPRLLIYGASSRATGIPDRFSGSGSGTDFILTINRLEPEDFAVYYCQHYGNSPWTFGQGTKVEIK
18 | 0.062 | 22 |  |  |  |  |  |  |  |  | H2M20373N (antibody, mouse IgG2, V domains shown, hybridoma antibody, human variable domains, mouse IgG2 Fc (H2M)) VH: EVQLLESGGGLVQPGGSLRLSCAASGFTFSSYAMSWVRQAPGKGLEWVSDISGSGLSTYYADSVKGRFAISRDNSKNMLYLQMNRLRAEDTAVYYCAKEPSHWNGEAFDIWGQGTMVTVSS VL: DIQMTQSPSSVSASVGDRVTITCRASQDISSWLAWYQQKPGKAPKLLIYTTANLQSGVPSRFSGSGSGTDFTLTISSLQSEDFATYYCQQANSFPFTFGSGTKVDIK
